# From patent US20130122008A1, “Anti-IL 1- ß Antibody Combination Therapy” (NOVARTIS AG, priority 2009, published 2013)
# “Also recorded” adds a separate entry of the source.
# B1: ACZ885: anti-IL1β antibody, also referred to as Canakinumab; variable domains shown in SEQ ID NO:1 (VH) and SEQ ID NO:2 (VL) (antibody, V domains shown)
# VH: QVQLVESGGGVVQPGRSLRLSCAASGFTFSVYGMNWVRQAPGKGLEWVAIIWYDGDNQYYADSVKGRFTISRDNSKNTLYLQMNGLRAEDTAVYYCARDLRTGPFDYWGQGTLVTVSS
# VL: EIVLTQSPDFQSVTPKEKVTITCRASQSIGSSLHWYQQKPDQSPKLLIKYASQSFSGVPSRFSGSGSGTDFTLTINSLEAEDAAAYYCHQSSSLPFTFGPGTKVDIK
# modifications: homo sapiens
# Experiments:
# Type in all cases: in vivo, human
# [1] = system: patients with type 2 diabetes mellitus (T2DM); assay: High sensitive C-reactive protein (hsCRP) in clinical study of ACZ885 in T2DM patients on metformin; settings: single i.v. dose 0.03, 0.1, 0.3, 1.5 mg/kg, Week 4, on stable metformin
# Method: CRP is one of the “acute phase” proteins, the serum or protein levels of which rise during general, nonspecific response to infectious and non-infectious inflammatory processes such as rheumatoid arthritis, cardiovascular disease and peripheral vascular disease. CRP is synthesized in the liver and is present in trace amounts in serum or plasma. The C-Reactive Protein HS assay is performed at Covance Central Laboratory Services by immunonephelometry using the Siemens BNII Nephelometer. Polystyrene particles coated with monoclonal antibodies to CRP are agglutinated when mixed with samples containing CRP. The intensity of the scattered light in the nephelometer depends on the CRP content of the sample and therefore the CRP concentration can be determined versus dilutions of a standard of a known concentration The method has an inter-assay precision of 2.1-5.7% CV, and an intra-assay precision of 2.3-4.4% (determined by assaying 10 replicate assays of a sample then evaluating the coefficient of variation). CRP accuracy is evaluated by comparison with College of American Pathologists (CAP) Cardiac Risk Survey. A multi center, randomized, double blind, placebo-controlled, dose escalation study of the safety, tolerability, pharmacokinetics and pharmacodynamics of ACZ885 administered intravenously to patients with type 2 diabetes mellitus. […]
# [2] = system: patients with type 2 diabetes mellitus (T2DM); assay: Glucagon (OGTT) in clinical study of ACZ885 in T2DM patients on metformin; settings: dose escalation, Week 4 post-dose, versus placebo
# Source text: Glucagon is a hormone secreted by the alpha cells of the pancreatic islets of Langerhans. It is secreted in response to hypoglycemia and increases the blood glucose. As serum glucose levels rise in the blood, glucagon is inhibited by a negative feedback mechanism. The Millipore/LINCO Glucagon Radioimmunoassay kit utilized I^125 labeled glucagon and glucagon antiserum to determine the level of glucagon in plasma by the double antibody/PEG technique. The antibody is specific for pancreatic glucagon. A standard curve is set up with increasing concentrations of standard unlabeled antigen and from this curve the amount of antigen in unknown samples can be calculated. The method has an inter-assay precision of 7.3-13.5% CV, and an intra-assay precision of 4.0-6.8% (determined by assaying replicate assays then evaluating the coefficient of variation). Accuracy is evaluated by comparison with College of American Pathologists (CAP) Ligand. A multi center, randomized, double blind, placebo-controlled, dose escalation study of the safety, tolerability, pharmacokinetics and pharmacodynamics of ACZ885 administered intravenously to patients with type 2 diabetes mellitus. The aim of the study is to compare the pharmacokinetic and pharmacodynamic effects of five doses (i.v. administration) of ACZ885 with placebo in patients with type 2 diabetes mellitus (T2DM). […]
# [3] = system: patients with type 2 diabetes mellitus (T2DM); assay: Proinsulin in clinical study of ACZ885 in T2DM patients on metformin; settings: Week 4 post-dose, versus placebo
# Method: A multi center, randomized, double blind, placebo-controlled, dose escalation study of the safety, tolerability, pharmacokinetics and pharmacodynamics of ACZ885 administered intravenously to patients with type 2 diabetes mellitus. The aim of the study is to compare the pharmacokinetic and pharmacodynamic effects of five doses (i.v. administration) of ACZ885 with placebo in patients with type 2 diabetes mellitus (T2DM). […] OGTT was administered at Baseline, 4 and 12 wk post-dose. The subsequent cohorts were included in the evaluation of pharmacodynamic, pharmacokinetis, pharmacogenomics and pharmacogenetics. • Cohort 2 (n=90; 1:1=ACZ885:Plb): received a single dose of ACZ885 (10 mg/kg) or placebo. • Cohort 3 (n=96) received a single dose of ACZ885 0.1, 0.3, 1.5 mg/kg or placebo (1:1:1:1). • Cohort 4 (n=30; 2:1=ACZ885:P1b) received a single dose of ACZ885 (0.03 mg/kg) or placebo. The study was designed to follow the patients for 24 weeks (168 days) after the single intravenous (i.v.) administration. An analysis of covariance (ANCOVA) with treatment as the classification variable and baseline as the covariate will be used for the comparison of treatments with respect to these parameters.
molecule,measurement,setting,value
B1,"high-sensitivity C-reactive protein (hsCRP), dose response",[1],linear reduction (dose proportional); also recorded: linear decreasing trend
same,OGTT glucagon AUC0-4 h,[2],"Positive trends consistent with dose escalation; also recorded: positive trend at Week 4 post-dose, albeit not statistically significant"
same,proinsulin,[3],"positive trend at Week 4 post-dose, albeit not statistically significant"
